Test results: publication PMC11814294, “A pathogen effector HaRxL10 hijacks the circadian clock component CHE to perturb both plant development and immunity”

Molecular target: GST-CHE (Arabidopsis thaliana, UniProt Q9FTA2 1-239)
Test: EMSA; 5 pmol protein, 50 fmol probe; no HaRxL10; LightShift Chemiluminescent EMSA Kit per manufacturer; 5 pmol protein, 50 fmol biotin probe, 200-fold unlabelled competitor; probes annealed in 10 mM Tris, 1 mM Na2EDTA, 50 mM NaCl; binding buffer, pH and temperature not stated
Conditions: protein: recombinant; tags: GST (pET-42a); chain copies: 2; label: 5'-biotin; blunt

Sequence of GST-CHE (Q9FTA2 whole entry): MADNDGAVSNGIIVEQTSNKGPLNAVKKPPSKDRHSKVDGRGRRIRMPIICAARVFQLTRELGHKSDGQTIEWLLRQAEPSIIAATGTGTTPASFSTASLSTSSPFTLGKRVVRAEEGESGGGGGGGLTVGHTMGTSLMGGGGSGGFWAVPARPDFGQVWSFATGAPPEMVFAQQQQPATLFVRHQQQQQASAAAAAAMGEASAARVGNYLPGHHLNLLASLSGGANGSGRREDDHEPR

B1: TBS probe (dsDNA)
DNA 1: GTAGGTCCCACTAGGTAGGTCCCACTAGGTAGGTCCCACTAGGTAGGTCCCACTAGGTAGGTCCCACTAG
DNA 2: CTAGTGGGACCTACCTAGTGGGACCTACCTAGTGGGACCTACCTAGTGGGACCTACCTAGTGGGACCTAC
B1: binds.
